# Source: IntAct's records for PubMed 12912994
# B1: Mitogen-activated protein kinase kinase kinase 2 (Mus musculus), Q61083 (parent)
# chain: MDDQQALNSIMQDLAVLHKASRPALSLQETRKAKPSSPKKQNDVRVKFEHRGEKRILQVTRPVKLEDLRSKSKIAFGQSMDLHYTNNELVIPLTTQDDLDKAVELLDRSIHMKSLKILLVVNGSTQATNLEPSPSPEDLNNTPLGAERKKRLSVVGPPNRDRSSPPPGYIPDILHQIARNGSFTSINSEGEFIPESMDQMLDPLSLSSPENSGSGSCPSLDSPLDGESYPKSRMPRAQSYPDNHQEFTDYDNPIFEKFGKGGTYPRRYHVSYHHQEYNDGRKTFPRARRTQGTSFRSPVSFSPTDHSLSTSSGSSVFTPEYDDSRIRRRGSDIDNPTLTVTDISPPSRSPRAPTNWRLGKLLGQGAFGRVYLCYDVDTGRELAVKQVQFNPESPETSKEVNALECEIQLLKNLLHERIVQYYGCLRDPQEKTLSIFMELSPGGSIKDQLKAYGALTENVTRKYTRQILEGVHYLHSNMIVHRDIKGANILRDSTGNIKLGDFGASKRLQTICLSGTGMKSVTGTPYWMSPEVISGEGYGRKADIWSVACTVVEMLTEKPPWAEFEAMAAIFKIATQPTNPKLPPHVSDYTRDFLKRIFVEAKLRPSAEELLRHMFVHYH
# partner: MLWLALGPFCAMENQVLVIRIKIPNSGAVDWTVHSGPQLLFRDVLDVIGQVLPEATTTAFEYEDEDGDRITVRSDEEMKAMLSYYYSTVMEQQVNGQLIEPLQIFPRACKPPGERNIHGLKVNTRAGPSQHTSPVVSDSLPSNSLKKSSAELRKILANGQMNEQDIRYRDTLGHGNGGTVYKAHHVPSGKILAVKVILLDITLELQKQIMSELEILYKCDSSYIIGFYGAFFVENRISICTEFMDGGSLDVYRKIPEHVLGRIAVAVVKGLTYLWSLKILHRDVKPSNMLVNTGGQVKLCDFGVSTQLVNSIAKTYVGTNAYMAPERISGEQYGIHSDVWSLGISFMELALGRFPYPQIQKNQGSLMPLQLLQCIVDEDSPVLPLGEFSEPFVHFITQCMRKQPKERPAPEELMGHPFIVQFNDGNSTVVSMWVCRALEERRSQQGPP
# Variants of: B1
# Conditions: with mp2k5_mouse Map2k5, Q9WVS7
row,Variant,effect of a mutation on the interaction
1,K47A,decreasing interaction
